# Results reported in patent publication US20190201542A1 (AbbVie / Abbott, published 2019).
# T1: human DLL3 (human, UniProt Q9NYJ7 27-492, limits assumed)
# T1 construct: also called hDLL3; DLL3 protein
# T1 sequence: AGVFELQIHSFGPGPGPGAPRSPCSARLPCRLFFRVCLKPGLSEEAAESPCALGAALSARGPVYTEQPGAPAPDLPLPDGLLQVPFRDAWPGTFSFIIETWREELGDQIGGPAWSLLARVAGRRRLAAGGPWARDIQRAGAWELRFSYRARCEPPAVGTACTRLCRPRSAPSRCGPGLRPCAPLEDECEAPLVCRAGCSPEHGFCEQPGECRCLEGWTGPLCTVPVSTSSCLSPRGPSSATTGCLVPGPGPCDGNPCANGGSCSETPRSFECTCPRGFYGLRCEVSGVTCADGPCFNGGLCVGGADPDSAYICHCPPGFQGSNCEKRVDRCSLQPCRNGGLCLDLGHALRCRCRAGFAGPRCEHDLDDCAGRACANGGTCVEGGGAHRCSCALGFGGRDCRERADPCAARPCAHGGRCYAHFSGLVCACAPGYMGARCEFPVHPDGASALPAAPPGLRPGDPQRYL
# Biological target: T1, human DLL3
# Assay: screen on immobilized hDLL3 or h293-hDLL3 cells
# How it was run: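 Solid-phase ELISA on DLL3-His (0.5 μg/ml coating), developed with HRP anti-mouse IgG and TMB and read at OD 450, was one screen for supernatants of single-cell hybridomas from human DLL3-immunized mice taken after 10 days in culture. Flow-cytometry binding counted as positive only above the control.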
row,binding result,Binder
1,binds,"SC16.106 (antibody, V domains shown, murine mAb) VH: QVQLKQSGPGLVAPSQSLFITCTVSGFSLTSYEINWVRQPPGKGLEWLGVIWTGGSTNYNSALISRLSISKDNSKSLVFLKMNSLQTDDTAIYYCVRGVYAMDYWGQGTSVTVSS VL: DIKMTQSPSSMYASLGERVTITCKASQDINSYLSWFQQKPGKSPKTLIYRANRLVDGVPSRFSGSGSGQDYSLTISSLEYEDMGIYYCLQYDEFPFTFGSGTKLEIK"
2,binds,"SC16.104 (antibody, V domains shown, murine mAb) VH: QVQLKESGPDLVQPSQTLSLTCTVSGFSLTFYGVHWVRQPPGKGLEWVGTMGWDDKKYYNSALKSRLSISRDTSKNQVFLKLSSLQTEDTAMYYCTRGGTGFDYWGQGTTLTVSS VL: QIVLSQSPAILSASPGEKVTMTCRASSSVSYIHWYRQKPGSSPKPWIYATSNLASGVPARFSGSGSGTSYSLTISRVEAEDAATYYCQQWSSNPPTFGAGTKLELK"
3,binds,"SC16.114 (antibody, V domains shown, murine mAb) VH: EVQLQQSGAELVKPGASVKLSCTASGFNIKDTYIHWVKQRPEQGLEWIGRIDPANGNTKYDPKFQGKATITPDTSSNTAYLQLSSLTSEDTAVYYCARSWRNYGSSFWYFDVWGAGTTVTVSS VL: QIVLSQSPAILSASPGEKVTMTCRASSSVSYMHWYQQKPGSSPKPWIYATSNLASGVPARFSGSGSGTSYSLTISRVEAEDAATYYCQQWSSNPYTFGGGTKLEIK"
4,binds,"SC16.111 (antibody, V domains shown, murine mAb) VH: EVQLQQSGPELEKPGASVKISCKASGYSFTGYNMNWVKQSNGKSLEWIGNIDPYYGGSSYKQKFEGKATLTVDKSSSTAYMQLKSLTSEDSAVYYCARGGSNFFDYWGQGTTLTVSS VL: DIQMTQSPASLAASVGETVTITCRASENIYYSLAWYQQKQGKSPQLLIYNANSLEDGVPSRFSGSGSGTQYSMKINSMQPEDTATYFCKQTYDVPLTFGAGTKLELK"
5,binds,"SC16.121 (antibody, V domains shown, murine mAb) VH: EVQLVESGGGLVQPKGSLKLSCAASGFTFNTYAMNWVRQAPGKGLEWVARIRIKSNNYATYYADSVKDRFTISRDDSQNMLYLQMNNLKTEDTAVYYCVRQGYSYDWGPWFAYWGQGTLVTVSA VL: QIVLTQSPAIMSASPGEKVTITCSASSSVSYMHWFQQKPGTSPKLWIYSTSNLASGVPARFSGSGSGTSYSLTISRMEAEDAATYYCQQRSSYPPTFGGGTKLEIK"
6,binds,"SC16.116 (antibody, V domains shown, murine mAb) VH: QVQLKQSGPGRVQPSQSLSITCTVSGFSLTSNGVHWVRQSPGKGLEWLGVLWSGGSTDYNAAFISRLSISKDNYKSQVFFKMNSLQANDTAIYYCARNNNRYGAMDYWGQGTSVTVSS VL: DIVMTQSPSSLTVTAGEKVTMSCTSSQSLLTSGNQKNYLTWYQQKPGQPPKLLIYWASTRESGVPDRFTGSGSGTDFTLTISSLQAEDLAVYYCQNDYSLTFGAGTKLELK"
7,binds,"SC16.113 (antibody, V domains shown, murine mAb) VH: DVKLVESGGGLVKPGGSLKLSCAASGFTFSSYTMSWVRQTPEKRLEWVATISSGGSYPYYPDSVKGRFTISRDNAKNTLYLQMSSLKSEDTAMYYCTRDVYDGYSYWGQGTTLTVSS VL: not shown"
8,binds,"SC16.115 (antibody, V domains shown, murine mAb) VH: DVKLVESGGGLVKPGGSLKLSCAASGFTFSSYTMSWVRQTPEKRLEWVATISSGGSYPYYPDSVKGRFTISRDNAKNTLYLQMSSLKSEDTAMYYCTRDVYDGYSYWGQGTTLTVSS VL: not shown"

# The next lines start with the binder.
row,Binder,binding result
1,"SC16.105 (antibody, V domains shown, murine mAb) VH: QVQLQQPGAELVKPGASVKLSCKASGYTFTSYWMHWVKQRPGQGLEWIGVINPSNGRTNYNEKFKSKATLTVDKSSSTAYMQLSSLTSEDSAVYYCARRRELGTLYAMDYWGQGTSVTVSS VL: DIVMTQSHKFMSTSVGDRVSITCKASQDVGTAVAWYQQKPGQSPKLLIYWASIRHTGVPDRFTGSGSGTDFTLTISNVQSEDLADYFCQQYSSYPLTFGAGTKLELK",binds
2,"SC16.103 (antibody, V domains shown, murine mAb) VH: QVTLKESGPGILKPSQTLSLTCSFSGFSLSTSGMGIGWIRQPSGKGLEWLAHIWWDDDKYYNPSLKSQLTISKDSSRNQVFLKITSVDTADTATYYCARRGTAYYFDYWGQGTTLTVSS VL: DIVLTQSPASLAVSLGQRATISCRASKSVSTSGYSYMHWYQQKPGQPPKLLIYLASNLESGVPARFSGSGSGTDFTLNIHPVEEEDAATYYCQHSRELPLTFGAGTKLELK",binds
3,"SC16.109 (antibody, V domains shown, murine mAb) VL: QIVLTQSPAIMSASPGEKVTMTCSASSSVSYMYWYQQKPGSSPRLLIYDTSNLASGVPVRFSGSGSGTSFSLTISRMEAEDTATYYCQEWSGNPLTFGDGTKLELK V domain: QIQLVQSGPELKKPGETVKISCKASGYTFTNYGMNWVKQAPGKGLKWMGWINTYTGEPAYADDFKGRFAFSLETSASAAYLQINNLKNEDTATFFCANMRPTRGFAYWGQGTLGTVSA",binds
4,"SC16.118 (antibody, V domains shown, murine mAb) VH: EVQLQQSGPDLVKPGASVKISCKASGYSFTGYYMHWVKQSHGKSLEWIGRVNPNNGGTSYNQKFKGKAILTADKSSSTAYMELRSLTSEDSAVYYCARGSYDYAEGWGQGTLVTVSA VL: DIVLTQSPASLAVSLGQRATISCKASQSVDYDGDSYLTWYQQKPGQPPKLLIYAASNLESGIPARFSGSGSGTDFTLNIHPVEEEDAATYYCQQSNEDPYTFGGGTKLEIK",binds
5,"SC16.134 (antibody, V domains shown, murine mAb) VH: EVQLQQSGPDLVKPGASVKISCKASGYSFTGYYMHWVKQSHGKRLEWIGRVNPNNGGTNYNQKFKGKAILTVDKSSSTAYMELRSLTSEDSAVYYCARGSYDNAEGWGQGTLVTVSA VL: DIVLTQSPASLAVSLGQRATISCKASQSVDHAGDSYMNWYQQKPGQPPKLLIYAASNLESGIPARFSGSGSGTDFTLNIHPVEEEDAATYYCQQSNEDPYTFGGGTKLEIK",binds
6,"SC16.117 (antibody, V domains shown, murine mAb) VH: QVQLKESGPGLVAPSQSLSITCTVSGFSLTNYGVHWVRQPPGKGLEWLGVIWAGGITNYNSALMSRLSISEDNSKSQVFLKMNSLQTDDTAMYYCARNLGPYAMDYWGQGTSVTVSS VL: DIQMNQSPSSLSASLGDTITITCHVSQNINVWLSWYQQKPGNIPKLLIQKASNLHTGVPSRFSGSGSGTGFTLTISSLQPEDIATYYCQQGQSYPFTFGSGTKLEIK",binds
7,"SC16.122 (antibody, V domains shown, murine mAb) VH: EVQLVESGGGLVKPGGSLKLSCAASGFTFSDYYMFWVRQTPEKRLEWVATISDGGSYTYFPDSVKGRFTISRDNAQNNLYLQMSSLKSEDTAMYYCARAGTLYAMDYWGQGTSVTVSS VL: DIVMTQSQKFMSTSVGDRVSVTCKASQNVGTNVAWYQQKPGQSPKVLIYSASYRYSGVPDRFTGSGSGTDFTLTISNVQSEDLAEFFCQQYNSYPLTFGGGTKLEIK",binds
8,"SC16.110 (antibody, V domains shown, murine mAb) VH: EVQLQQSGPGLVRTGASVKISCKASGYSFTGYYMHWVKQSHGKSLEWIGYISCYNGATTYNQNFKGKATFIVDTSSSTAYMQFNSLTSEDSAVYYCARSDGGHAMDYWGQGTSVTVSS VL: NIVMTQTPKFLLVSAGDRVTITCKASQSVSNDVAWYQQKPGQSPKLLIYYASNRYTGVPDRFTGSGYGTDFTFTISTVQAEDLAVYFCQQDYSSPPTFGGGTKLEIK",binds
9,"SC16.107 (antibody, V domains shown, murine mAb) VH: EVQLQQSGPELVKPGASVKMSCKASGYTFTNYVMHWVKQKPGQGLEWIGYINPYNDGTKYNEKFKGKATLTSDKSSTTAYMALSSLTSEDSAVYYCAVAYYSNWGFAYWGQGTLVTVSA VL: DIVMTQSHKFMSTSVGDRVSITCKASQDVNTAVGWYQQKPGQSPKLLIYSASYRYTGVPDRFTGSGSGTDFTFTISSVQAEDLAVYYCQQHYSSPYTFGGGTKVEIK",binds
10,"SC16.139 (antibody, V domains shown, murine mAb) VH: EVQLQQSGPELVKPGASVKMSCKASGYTFTNYVMHWVKQKPGQGLEWIGYINPYNDGTKYNEKFKGKATLTSDKSSTTAYMALSSLTSEDSAVYYCAVAYYSNWGFAYWGQGTLVTVSA VL: DIVMTQSHKFMSTSVGDRVSITCKASQDVNTAVGWYQQKPGQSPKLLIYSASYRYTGVPDRFTGSGSGTDFTFTISSVQAEDLAVYYCQQHYSSPYTFGGGTKLEIK",binds
11,"SC16.101 (antibody, V domains shown, murine mAb) VL: QIVLTQSPAIMSASLGERVTMTCTASSSVSSSYLHWYQQKPGSSPKLWIYSTSNLASGVPARFSGSESGTSYSLTISNMEAEDAATYYCHQYHRSPFTFGSGTKLEIK V domain: QVTLKESGPGILQPSQTLSLTCSFSGFSLSTSGMGVGWIRQPSGKGLEWLAHIWWDDVKRYNPALKSRLTISKDASSSQVFLKIASVDTAETATYYCAHILDRAYYFDYWGQGTTLTVTS",binds
12,"SC16.10 (antibody, V domains shown, murine mAb) VH: QVTLKESGPGILQSSQTLSLTCSFSGFSLSTSGMGVGWIRQPSGKGLEWLAHIWWDDVKRYNPVLKSRLTISKDTSSSQVFLKIASVDTADTATYYCARLVDDLYYFDYWGQGTTLTVSS VL: QIVLTQSPAIMSASLGERVTMTCTASSSVSSSYLHWYQQKPGSSPKLWIYSTSNLASGVPTRFSGSGSGTSYSLTISSMEAEDAATYYCHQYHRSPFTFGSGTKLEIK",binds
